{
  "source": "paper PMC3744504",
  "about": "“Soluble Variants of Human Recombinant Glutaminyl Cyclase” (PLoS ONE, 2013)",
  "proteins": {"B1": {"name": "wild type human Glutaminyl Cyclase (hQPCT), Ala33-Leu361, His6-tagged (enzyme, UniProt Q16769 33-361, looked up)", "chain": "ASAWPEEKNYHQPAILNSSALRQIAEGTSISEMWQNDLQPLLIERYPGSPGSYAARQHIMQRIQRLQADWVLEIDTFLSQTPYGYRSFSNIISTLNPTAKRHLVLACHYDSKYFSHWNNRVFVGATDSAVPCAMMLELARALDKKLLSLKTVSDSKPDLSLQLIFFDGEEAFLHWSPQDSLYGSRHLAAKMASTPHPPGARGTSQLHGMDLLVLLDLIGAPNPTFPNFFPNSARWFERLQAIEHELHELGLLKDHSLEGRYFQNYSYGGVIQDDHIPFLRRGVPVLHLIPSPFPEVWHTMDDNEENLDESTIDNLNKILQVFVLEYLHL", "notes": "human glutaminyl-peptide cyclotransferase (glutaminyl cyclase), residues Ala33-Leu361, cloned in pQE80L; Not glycosylated (E. coli); Apo-protein mass by MALDI 38735 Da; No preparative size exclusion step was applied to the wild type; also called wild type hQPCT; Glutaminyl-peptide Cyclotransferase; not shown: His6, N-terminal, kept"}},
  "molecular_target": "the molecule itself",
  "experiment": "SEC; analytical size exclusion chromatography (Superdex 5/150 column) on 50 µl of sample after the Ni-affinity step",
  "data": [
    {"protein": "B1", "values": [
      {"measurement": "binding result", "value": "binds"}
    ]}
  ]
}
